Assay results as given in PMC8444450 (The Journal of Biological Chemistry, 2021).

Molecular target: SARS-CoV-2 spike receptor-binding domain (amino acids 333–529), bacteria-expressed and refolded (SARS-CoV-2, parental (WT) RBD, UniProt P0DTC2)
Assay: SPR
Conditions: both partners purified

B1: sybody Sb68 (VHH)
VHH: QVQLVESGGGSVQAGGSLRLSCAASGSISSITYLGWFRQAPGKEREGVAALITVNGHTYYADSVKGRFTVSLDNAKNTVYLQMNSLKPEDTALYYCAAAAWGYAWPLHQDDYWYWGQGTQVTVSA
B1 showed a Kd of 6.8 to 62.7 nM.
